Laboratory results from the Human Domainome abundance scans (Beltran et al. 2025).
± gives the uncertainty stated by the source.

B1: COUP transcription factor 1, residues 83 to 159; numbered along this chain, P10589 (parent)
chain: HIECVVCGDKSSGKHYGQFTCEGCKSFFKRSVRRNLTYTCRANRNCPIDQHHRNQCQYCRLKKCLKVGMRREAVQRG

Variants of: B1
Experiment: abundance fitness (aPCA) (normalised: wild type 0, dead -1); higher = more abundant; growth selection in yeast, the domain comes from the species named
Settings: Homo sapiens

HIECVVCGDKSSGKHYGQFTCEGCKSFFKRSVRRNLTYTCRANRNCPIDQHHRNQCQYFRLKKCLKVGMRREAVQRG [C59F] and HIECVVCGDKSSGKHYGQFTCEGCKSFFKRSVRRNLTYTCRANRNCPIDQHHRNQCQYGRLKKCLKVGMRREAVQRG [C59G] are within error of each other in abundance fitness: -0.978 ± 0.42 for the first, -0.789 ± 0.055 for the second.

HIECVVCGDKSSGKHYGQFTCEGCKSFFKRSVRRNLTYTCRANRNCPIDQHHRNQCQYIRLKKCLKVGMRREAVQRG [C59I] and HIECVVCGDKSSGKHYGQFTCEGCKSFFKRSVRRNLTYTCRANRNCPIDQHHRNQCQYKRLKKCLKVGMRREAVQRG [C59K] are within error of each other in abundance fitness: -1 ± 0.31 for the first, -0.871 ± 0.14 for the second.

HIECVVCGDKSSGKHYGQFTCEGCKSFFKRSVRRNLTYTCRANRNCPIDQHHRNQCQYLRLKKCLKVGMRREAVQRG [C59L] and HIECVVCGDKSSGKHYGQFTCEGCKSFFKRSVRRNLTYTCRANRNCPIDQHHRNQCQYMRLKKCLKVGMRREAVQRG [C59M] are within error of each other in abundance fitness: -0.934 ± 0.09 for the first, -0.809 ± 0.13 for the second.

Going from HIECVVCGDKSSGKHYGQFTCEGCKSFFKRSVRRNLTYTCRANRNCPIDQHHRNQCQYPRLKKCLKVGMRREAVQRG [C59P] to HIECVVCGDKSSGKHYGQFTCEGCKSFFKRSVRRNLTYTCRANRNCPIDQHHRNQCQYQRLKKCLKVGMRREAVQRG [C59Q], the abundance fitness falls from -0.541 ± 0.094 to -0.801 ± 0.12.

HIECVVCGDKSSGKHYGQFTCEGCKSFFKRSVRRNLTYTCRANRNCPIDQHHRNQCQYRRLKKCLKVGMRREAVQRG [C59R] and HIECVVCGDKSSGKHYGQFTCEGCKSFFKRSVRRNLTYTCRANRNCPIDQHHRNQCQYSRLKKCLKVGMRREAVQRG [C59S] are within error of each other in abundance fitness: -0.848 ± 0.069 for the first, -0.853 ± 0.1 for the second.

Compared with HIECVVCGDKSSGKHYGQFTCEGCKSFFKRSVRRNLTYTCRANRNCPIDQHHRNQCQYVRLKKCLKVGMRREAVQRG [C59V], HIECVVCGDKSSGKHYGQFTCEGCKSFFKRSVRRNLTYTCRANRNCPIDQHHRNQCQYWRLKKCLKVGMRREAVQRG [C59W] is lower in abundance fitness: -0.729 ± 0.068 for the first, -1.02 ± 0.12 for the second.

First: HIECVVCGDKSSGKHYGQFTCEGCKSFFKRSVRRNLTYTCRANRNCPIDQHHRNQCQYYRLKKCLKVGMRREAVQRG [C59Y]
Second: HIECVVCGDKSSGKHYGQFTCEGCKSFFKRSVRRNLTYTCRANRNCPIDQHHRNQCQYCALKKCLKVGMRREAVQRG [R60A]
The abundance fitness of the first is lower: -0.789 ± 0.19 for the first, -0.088 ± 0.038 for the second.

Compared with HIECVVCGDKSSGKHYGQFTCEGCKSFFKRSVRRNLTYTCRANRNCPIDQHHRNQCQYCCLKKCLKVGMRREAVQRG [R60C], HIECVVCGDKSSGKHYGQFTCEGCKSFFKRSVRRNLTYTCRANRNCPIDQHHRNQCQYCDLKKCLKVGMRREAVQRG [R60D] is lower in abundance fitness: -0.007 ± 0.052 for the first, -0.535 ± 0.11 for the second.

First: HIECVVCGDKSSGKHYGQFTCEGCKSFFKRSVRRNLTYTCRANRNCPIDQHHRNQCQYCELKKCLKVGMRREAVQRG [R60E]
Second: HIECVVCGDKSSGKHYGQFTCEGCKSFFKRSVRRNLTYTCRANRNCPIDQHHRNQCQYCFLKKCLKVGMRREAVQRG [R60F]
The abundance fitness of the first is lower: -0.503 ± 0.06 for the first, 0.132 ± 0.059 for the second.

Going from HIECVVCGDKSSGKHYGQFTCEGCKSFFKRSVRRNLTYTCRANRNCPIDQHHRNQCQYCILKKCLKVGMRREAVQRG [R60I] to HIECVVCGDKSSGKHYGQFTCEGCKSFFKRSVRRNLTYTCRANRNCPIDQHHRNQCQYCLLKKCLKVGMRREAVQRG [R60L], the abundance fitness rises from -0.227 ± 0.076 to 0.205 ± 0.034.

First: HIECVVCGDKSSGKHYGQFTCEGCKSFFKRSVRRNLTYTCRANRNCPIDQHHRNQCQYCMLKKCLKVGMRREAVQRG [R60M]
Second: HIECVVCGDKSSGKHYGQFTCEGCKSFFKRSVRRNLTYTCRANRNCPIDQHHRNQCQYCNLKKCLKVGMRREAVQRG [R60N]
The abundance fitness of the first is higher: 0.283 ± 0.038 for the first, -0.416 ± 0.1 for the second.

First: HIECVVCGDKSSGKHYGQFTCEGCKSFFKRSVRRNLTYTCRANRNCPIDQHHRNQCQYCPLKKCLKVGMRREAVQRG [R60P]
Second: HIECVVCGDKSSGKHYGQFTCEGCKSFFKRSVRRNLTYTCRANRNCPIDQHHRNQCQYCQLKKCLKVGMRREAVQRG [R60Q]
The abundance fitness of the first is lower: -0.602 ± 0.092 for the first, 0.197 ± 0.045 for the second.

Compared with HIECVVCGDKSSGKHYGQFTCEGCKSFFKRSVRRNLTYTCRANRNCPIDQHHRNQCQYCSLKKCLKVGMRREAVQRG [R60S], HIECVVCGDKSSGKHYGQFTCEGCKSFFKRSVRRNLTYTCRANRNCPIDQHHRNQCQYCTLKKCLKVGMRREAVQRG [R60T] is higher in abundance fitness: -0.56 ± 0.064 for the first, -0.007 ± 0.046 for the second.

First: HIECVVCGDKSSGKHYGQFTCEGCKSFFKRSVRRNLTYTCRANRNCPIDQHHRNQCQYCVLKKCLKVGMRREAVQRG [R60V]
Second: HIECVVCGDKSSGKHYGQFTCEGCKSFFKRSVRRNLTYTCRANRNCPIDQHHRNQCQYCWLKKCLKVGMRREAVQRG [R60W]
The abundance fitness of the first is lower: -0.157 ± 0.037 for the first, 0.139 ± 0.038 for the second.

HIECVVCGDKSSGKHYGQFTCEGCKSFFKRSVRRNLTYTCRANRNCPIDQHHRNQCQYCRAKKCLKVGMRREAVQRG [L61A] and HIECVVCGDKSSGKHYGQFTCEGCKSFFKRSVRRNLTYTCRANRNCPIDQHHRNQCQYCRCKKCLKVGMRREAVQRG [L61C] are within error of each other in abundance fitness: -0.72 ± 0.07 for the first, -0.649 ± 0.089 for the second.

First: HIECVVCGDKSSGKHYGQFTCEGCKSFFKRSVRRNLTYTCRANRNCPIDQHHRNQCQYCRDKKCLKVGMRREAVQRG [L61D]
Second: HIECVVCGDKSSGKHYGQFTCEGCKSFFKRSVRRNLTYTCRANRNCPIDQHHRNQCQYCREKKCLKVGMRREAVQRG [L61E]
The abundance fitness of the first is lower: -0.799 ± 0.12 for the first, -0.38 ± 0.053 for the second.

Going from HIECVVCGDKSSGKHYGQFTCEGCKSFFKRSVRRNLTYTCRANRNCPIDQHHRNQCQYCRFKKCLKVGMRREAVQRG [L61F] to HIECVVCGDKSSGKHYGQFTCEGCKSFFKRSVRRNLTYTCRANRNCPIDQHHRNQCQYCRGKKCLKVGMRREAVQRG [L61G], the abundance fitness falls from -0.062 ± 0.058 to -0.73 ± 0.06.

With HIECVVCGDKSSGKHYGQFTCEGCKSFFKRSVRRNLTYTCRANRNCPIDQHHRNQCQYCRHKKCLKVGMRREAVQRG [L61H] the abundance fitness was -0.668 ± 0.12.
